In one experiment the target is T1, human complement C2 (human, UniProt P06681 21-752).
T1 sequence: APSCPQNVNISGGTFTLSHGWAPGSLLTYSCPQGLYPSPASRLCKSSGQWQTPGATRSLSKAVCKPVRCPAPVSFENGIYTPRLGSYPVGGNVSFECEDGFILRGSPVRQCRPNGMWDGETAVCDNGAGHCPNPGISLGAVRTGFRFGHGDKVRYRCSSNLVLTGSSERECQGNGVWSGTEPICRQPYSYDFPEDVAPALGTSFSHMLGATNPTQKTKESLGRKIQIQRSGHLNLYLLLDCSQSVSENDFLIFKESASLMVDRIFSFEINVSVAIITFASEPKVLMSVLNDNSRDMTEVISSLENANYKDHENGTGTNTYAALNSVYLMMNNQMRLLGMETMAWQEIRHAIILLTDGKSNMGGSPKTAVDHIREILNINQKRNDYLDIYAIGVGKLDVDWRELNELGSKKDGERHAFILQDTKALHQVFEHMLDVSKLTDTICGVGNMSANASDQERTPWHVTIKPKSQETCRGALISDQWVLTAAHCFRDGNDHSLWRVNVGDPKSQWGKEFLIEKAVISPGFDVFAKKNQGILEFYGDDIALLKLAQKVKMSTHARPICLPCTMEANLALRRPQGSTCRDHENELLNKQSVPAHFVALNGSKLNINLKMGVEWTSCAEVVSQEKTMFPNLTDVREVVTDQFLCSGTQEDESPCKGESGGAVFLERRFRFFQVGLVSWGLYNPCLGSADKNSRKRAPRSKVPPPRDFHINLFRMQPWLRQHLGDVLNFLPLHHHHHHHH
The experiment is described as follows: cell-based or functional assay.

In the next experiment the target is T2, human C2 Y702A (human, UniProt P06681 21-752).
T2 sequence: T1 sequence with Y682A
Description: SPR, antibody captured, C2 as analyte.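 Note: biacore SPR at 37 °C, anti-C2 mAbs captured via goat anti-human IgG on CM5 chips, double-referenced sensorgrams fit to a 1:1 kinetic or steady-state model.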

The target of a further experiment is T3, human C2 L706A (human, UniProt P06681 21-752).
T3 sequence: T1 sequence with L686A
The experiment is described as follows: SPR, antibody captured, C2 as analyte.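 Note: biacore SPR at 37 °C, anti-C2 mAbs captured via goat anti-human IgG on CM5 chips, double-referenced sensorgrams fit to a 1:1 kinetic or steady-state model.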

The target of the next experiment is T4, human C2 M452A (human, UniProt P06681 21-752).
T4 sequence: T1 sequence with M432A
The experiment is described as follows: SPR, antibody captured, C2 as analyte.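 Note: biacore SPR at 37 °C, anti-C2 mAbs captured via goat anti-human IgG on CM5 chips, double-referenced sensorgrams fit to a 1:1 kinetic or steady-state model.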 For orientation: Surface plasmon resonance follows binding to a sensor surface in real time, without labels.

Numbering of substitutions follows the chain as printed.

B1: RF16-226 (antibody)
heavy: not shown
light: SYELTQPPSVSVSPGQTARITCSGDALTSKYVAWYQQKSGLAPLLVIYEDTRRPSGIPAKFSGSSSGSVATLTISGAHGDDEADYYCYSTDASGHQRVFGGGTKLTVLSQPKAAPSVTLFPPSSEELQANKATLVCLISDFYPGAVTVAWKADGSPVKAGVETTKPSKQSNNKYAASSYLSLTPEQWKSHRSYSCQVTHEGSTVEKTVAPTECS
For the molecule B1, the “log IC50 for inhibition of C1s-mediated cleavage of C2 (C2a band on SDS-PAGE, C1s titrated)” value with human complement C2 was found to be 50.3 nM.

B2: RF16-226 (antibody, human IgG4 S228P, lambda)
heavy: not shown
light: B1 light
notes: pH-dependent anti-C2 antibody from a phage display library; also called WT
In general, Kd refers to the free concentration of one partner at which half of the binding sites on the other are occupied at equilibrium, for simple one-to-one binding. Low values mean tighter binding, high ones weaker binding. For the molecule B2, the Kd amounted to 106 nM with human C2 Y702A, 229 nM with human C2 L706A and 4.1 nM with human C2 M452A.

The values are drawn from US20220332804A1 (CSL INNOVATION, published 2022).
